IC50 data for one molecule are collected here from patent US20110117017A1, “PEPTIDES WITH PROPERTIES OF AN […] FOR THE ALPHA 1A […] RECEPTOR AND USES THEREOF” (priority 2006, published 2011).

The target of this experiment is T1, alpha1b adrenergic receptor (expressed in Pichia pastoris, membranes) (Homo sapiens (Human)), P35368.
T1 chain: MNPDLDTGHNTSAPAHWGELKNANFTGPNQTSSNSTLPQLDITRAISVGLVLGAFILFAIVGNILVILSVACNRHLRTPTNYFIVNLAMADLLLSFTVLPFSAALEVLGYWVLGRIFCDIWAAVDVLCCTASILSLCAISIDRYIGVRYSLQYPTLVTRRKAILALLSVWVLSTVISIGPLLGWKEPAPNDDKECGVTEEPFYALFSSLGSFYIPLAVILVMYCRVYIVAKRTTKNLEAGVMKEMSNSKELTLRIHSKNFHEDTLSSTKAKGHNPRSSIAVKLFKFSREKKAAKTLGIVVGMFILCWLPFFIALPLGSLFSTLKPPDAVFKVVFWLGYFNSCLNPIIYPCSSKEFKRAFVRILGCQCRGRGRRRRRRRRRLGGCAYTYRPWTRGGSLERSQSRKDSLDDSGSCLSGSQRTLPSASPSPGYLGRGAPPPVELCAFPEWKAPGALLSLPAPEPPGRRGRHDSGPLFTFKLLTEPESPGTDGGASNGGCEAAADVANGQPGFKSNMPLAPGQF
Nature of the experiment: displacement of 3H-prazosin (1 nM) from yeast membranes, filtration. On the technique in general: In a radioligand displacement assay an active substance lowers the binding of a labelled ligand.

B1: AdTx1 peptide (peptide)
peptide: LTCVTSKSIFGITTEDCPDGQNLCFKRRHYVVPKIYDSTRGCAATCPIPENYDSIHCCKTDKCNE
modifications: not checked
In the case of B1, the IC50 (in general, the concentration needed to halve the response being measured) came to 2.3 µM.
